The results in this text go back to the supplement of paper PMC5998384.

Data set [1] deals with HeLa Kyoto. The data set is described as follows: solubility in G1/S (NP-40 vs SDS abundance) (log2 ratio); higher = more soluble. The following applies: cell cycle stage: G1/S.
Data set [2] deals with HeLa Kyoto. The data set is described as follows: melting temperature (median over replicates), in situ; higher = more thermally stable.
Data set [3] relates to HeLa Kyoto. In words: solubility change mitosis vs G1/S (difference of NP-40 vs SDS log2 ratios) (log2 ratio difference); higher = more soluble in mitosis.
In data set [4] the test system is HeLa Kyoto. In words: thermal stability score vs G1/S (z-score of summed log2 fold changes over temperatures); higher = more thermally stable than in G1/S.
Setting [5] is: cell cycle stage: early G1 (4.5 h after nocodazole release).
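Throughout, for melting temperature (median over replicates), in situ: HeLa Kyoto cells synchronized by double thymidine or nocodazole block, proteins quantified by TMT10plex mass spectrometry, three independent biological replicates.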
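Throughout, for solubility change mitosis vs G1/S (difference of NP-40 vs SDS log2 ratios): synchronized HeLa Kyoto cells (double thymidine block for G1/S, nocodazole release for mitosis), protein amounts in NP-40 versus SDS lysates quantified by mass spectrometry, three biological replicates.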
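Throughout, for solubility in G1/S (NP-40 vs SDS abundance): HeLa Kyoto cells arrested at G1/S by double thymidine block, proteins quantified by TMT10plex mass spectrometry in mild NP-40 versus SDS extracts, three biological replicates.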
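Throughout, for thermal stability score vs G1/S (z-score of summed log2 fold changes over temperatures): synchronized HeLa Kyoto cells, proteins quantified by TMT10plex mass spectrometry, three biological replicates, mitosis taken 0.5 h after nocodazole release, G1/S directly after double thymidine block.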

Regarding “MGDPAPARSLDDIDLSALRDPAGIFELVEVVGNGTYGQVYKGRHVKTGQLAAIKVMDVTEDEEEEIKQEINMLKKYSHHRNIATYYGAFIKKSPPGNDDQLWLVMEFCGAGSVTDLVKNTKGNALKEDCIAYICREILRGLAHLHAHKVIHRDIKGQNVLLTENAEVKLVDFGVSAQLDRTVGRRNTFIGTPYWMAPEVIACDENPDATYDYRSDIWSLGITAIEMAEGAPPLCDMHPMRALFLIPRNPPPRLKSKKWSKKFIDFIDTCLIKTYLSRPPTEQLLKFPFIRDQPTERQVRIQLKDHIDRSRKKRGEKEETEYEYSGSEEEDDSHGEEGEPSSIMNVPGESTLRREFLRLQQENKSNSEALKQQQQLQQQQQRDPEAHIKHLLHQRQRRIEEQKEERRRVEEQQRREREQRKLQEKEQQRRLEDMQALRREEERRQAEREQEYKRKQLEEQRQSERLQRQLQQEHAYLKSLQQQQQQQQLQKQQQQQLLPGDRKPLYHYGRGMNPADKPAWAREVEERTRMNKQQNSPLAKSKPGSTGPEPPIPQASPGPPGPLSQTPPMQRPVEPQEGPHKSLVAHRVPLKPYAAPVPRSQSLQDQPTRNLAAFPASHDPDPAIPAPTATPSARGAVIRQNSDPTSEGPGPSPNPPAWVRPDNEAPPKVPQRTSSIATALNTSGAGGSRPAQAVRARPRSNSAWQIYLQRRAERGTPKPPGPPAQPPGPPNASSNPDLRRSDPGWERSDSVLPASHGHLPQAGSLERNRVGVSSKPDSSPVLSPGNKAKPDDHRSRPGRPADFVLLKERTLDEAPRPPKKAMDYSSSSEEVESSEDDEEEGEGGPAEGSRDTPGGRSDGDTDSVSTMVVHDVEEITGTQPPYGGGTMVVQRTPEEERNLLHADSNGYTNLPDVVQPSHSPTENSKGQSPPSKDGSGDYQSRGLVKAPGKSSFTMFVDLGIYQPGGSGDSIPITALVGGEGTRLDQLQYDVRKGSVVNVNPTNTRAHSETPEIRKYKKRFNSEILCAALWGVNLLVGTENGLMLLDRSGQGKVYGLIGRRRFQQMDVLEGLNLLITISGKRNKLRVYYLSWLRNKILHNDPEVEKKQGWTTVGDMEGCGHYRVVKYERIKFLVIALKSSVEVYAWAPKPYHKFMAFKSFADLPHRPLLVDLTVEEGQRLKVIYGSSAGFHAVDVDSGNSYDIYIPVHIQSQITPHAIIFLPNTDGMEMLLCYEDEGVYVNTYGRIIKDVVLQWGEMPTSVAYICSNQIMGWGEKAIEIRSVETGHLDGVFMHKRAQRLKFLCERNDKVFFASVRSGGSSQVYFMTLNRNCIMNW [MINK1]”, the “solubility in G1/S (log2)” value in data set [1] is -0.0708. The results for the melting temperature in data set [2] (cell cycle stage: G1/S) and in data set [2] (cell cycle stage: mitosis) were 49.8 °C and 50.7 °C, respectively. Moreover, in data set [3], the “solubility change mitosis (log2)” value is 0.157. Moreover, the figures for the thermal stability score in data set [4] (setting [5]) and in data set [4] (cell cycle stage: mitosis) were 0.759 and 2.05, respectively.

For the sequence “MLTRVKSAVANFMGGIMAGSSGSEHGGGSCGGSDLPLRFPYGRPEFLGLSQDEVECSADHIARPILILKETRRLPWATGYAEVINAGKSTHNEDQASCEVLTVKKKAGAVTSTPNRNSSKRRSSLPNGEGLQLKENSESEGVSCHYWSLFDGHAGSGAAVVASRLLQHHITEQLQDIVDILKNSAVLPPTCLGEEPENTPANSRTLTRAASLRGGVGAPGSPSTPPTRFFTEKKIPHECLVIGALESAFKEMDLQIERERSSYNISGGCTALIVICLLGKLYVANAGDSRAIIIRNGEIIPMSSEFTPETERQRLQYLAFMQPHLLGNEFTHLEFPRRVQRKELGKKMLYRDFNMTGWAYKTIEDEDLKFPLIYGEGKKARVMATIGVTRGLGDHDLKVHDSNIYIKPFLSSAPEVRIYDLSKYDHGSDDVLILATDGLWDVLSNEEVAEAITQFLPNCDPDDPHRYTLAAQDLVMRARGVLKDRGWRISNDRLGSGDDISVYVIPLIHGNKLS [PPM1H]”, the “solubility in G1/S (log2)” value in data set [1] was determined as 0.29. Further, the results for the melting temperature in data set [2] (cell cycle stage: G1/S) and in data set [2] (cell cycle stage: mitosis) were 55.9 °C and 56.9 °C, respectively. Also, in data set [3], the “solubility change mitosis (log2)” value was found to be 0.221. Further, the thermal stability score in data set [4] (setting [5]) is -2.63; in data set [4] (cell cycle stage: mitosis) it was -1.3.

For “MAPLGGAPRLVLLFSGKRKSGKDFVTEALQSRLGADVCAVLRLSGPLKEQYAQEHGLNFQRLLDTSTYKEAFRKDMIRWGEEKRQADPGFFCRKIVEGISQPIWLVSDTRRVSDIQWFREAYGAVTQTVRVVALEQSRQQRGWVFTPGVDDAESECGLDNFGDFDWVIENHGVEQRLEEQLENLIEFIRSRL [PMVK]”, in data set [1], the “solubility in G1/S (log2)” value is -0.0155. The melting temperature in data set [2] (cell cycle stage: G1/S) was 46.6 °C; in data set [2] (cell cycle stage: mitosis), 47.8 °C. Also, the “solubility change mitosis (log2)” value in data set [3] is -0.0243. The thermal stability score in data set [4] (setting [5]) was determined as 1.41; in data set [4] (cell cycle stage: mitosis), 1.71.

For “MPSDLAKKKAAKKKEAAKARQRPRKGHEENGDVVTEPQVAEKNEANGRETTEVDLLTKELEDFEMKKAAARAVTGVLASHPNSTDVHIINLSLTFHGQELLSDTKLELNSGRRYGLIGLNGIGKSMLLSAIGKREVPIPEHIDIYHLTREMPPSDKTPLHCVMEVDTERAMLEKEAERLAHEDAECEKLMELYERLEELDADKAEMRASRILHGLGFTPAMQRKKLKDFSGGWRMRVALARALFIRPFMLLLDEPTNHLDLDACVWLEEELKTFKRILVLVSHSQDFLNGVCTNIIHMHNKKLKYYTGNYDQYVKTRLELEENQMKRFHWEQDQIAHMKNYIARFGHGSAKLARQAQSKEKTLQKMMASGLTERVVSDKTLSFYFPPCGKIPPPVIMVQNVSFKYTKDGPCIYNNLEFGIDLDTRVALVGPNGAGKSTLLKLLTGELLPTDGMIRKHSHVKIGRYHQHLQEQLDLDLSPLEYMMKCYPEIKEKEEMRKIIGRYGLTGKQQVSPIRNLSDGQKCRVCLAWLAWQNPHMLFLDEPTNHLDIETIDALADAINEFEGGMMLVSHDFRLIQQVAQEIWVCEKQTITKWPGDILAYKEHLKSKLVDEEPQLTKRTHNV [ABCF2]”, the “solubility in G1/S (log2)” value in data set [1] is -0.296. Also, the melting temperature in data set [2] (cell cycle stage: G1/S) is 51.8 °C; in data set [2] (cell cycle stage: mitosis), 51.2 °C. Also, the “solubility change mitosis (log2)” value in data set [3] is 0.116. The values for the thermal stability score in data set [4] (setting [5]) and in data set [4] (cell cycle stage: mitosis) were 1.11 and 0.19, respectively.

“MSSTSPNLQKAIDLASKAAQEDKAGNYEEALQLYQHAVQYFLHVVKYEAQGDKAKQSIRAKCTEYLDRAEKLKEYLKNKEKKAQKPVKEGQPSPADEKGNDSDGEGESDDPEKKKLQNQLQGAIVIERPNVKWSDVAGLEGAKEALKEAVILPIKFPHLFTGKRTPWRGILLFGPPGTGKSYLAKAVATEANNSTFFSISSSDLVSKWLGESEKLVKNLFQLARENKPSIIFIDEIDSLCGSRSENESEAARRIKTEFLVQMQGVGVDNDGILVLGATNIPWVLDSAIRRRFEKRIYIPLPEPHARAAMFKLHLGTTQNSLTEADFRELGRKTDGYSGADISIIVRDALMQPVRKVQSATHFKKVRGPSRADPNHLVDDLLTPCSPGDPGAIEMTWMDVPGDKLLEPVVSMSDMLRSLSNTKPTVNEHDLLKLKKFTEDFGQEG [VPS4B]”: the “solubility in G1/S (log2)” value in data set [1] came to 0.414. Also, the melting temperature in data set [2] (cell cycle stage: G1/S) came to 50.5 °C; in data set [2] (cell cycle stage: mitosis) it was 50.2 °C. In addition, the “solubility change mitosis (log2)” value in data set [3] was -0.125. The thermal stability score in data set [4] (setting [5]) is 0.98; in data set [4] (cell cycle stage: mitosis), 1.43.

“MEKIPVSAFLLLVALSYTLARDTTVKPGAKKDTKDSRPKLPQTLSRGWGDQLIWTQTYEEALYKSKTSNKPLMIIHHLDECPHSQALKKVFAENKEIQKLAEQFVLLNLVYETTDKHLSPDGQYVPRIMFVDPSLTVRADITGRYSNRLYAYEPADTALLLDNMKKALKLLKTEL [AGR2]”: the “solubility in G1/S (log2)” value in data set [1] came out at 0.49. Also, the melting temperature in data set [2] (cell cycle stage: G1/S) stood at 53.8 °C; in data set [2] (cell cycle stage: mitosis), 53.4 °C. Besides, the “solubility change mitosis (log2)” value in data set [3] came to 0.3. Besides, the results for the thermal stability score in data set [4] (setting [5]) and in data set [4] (cell cycle stage: mitosis) were 0.575 and -1.24, respectively.
